Data on eight molecules can be found in US20170306033A1 (Amgen, published 2017).

For one test, the target named is human CGRP receptor (human, UniProt Q16602 23-461; O60894 27-148). The test is described as follows: cell-based or functional assay.
The next test has as its target T1, human PAC1 receptor (human, UniProt P41586 21-468).
T1 sequence: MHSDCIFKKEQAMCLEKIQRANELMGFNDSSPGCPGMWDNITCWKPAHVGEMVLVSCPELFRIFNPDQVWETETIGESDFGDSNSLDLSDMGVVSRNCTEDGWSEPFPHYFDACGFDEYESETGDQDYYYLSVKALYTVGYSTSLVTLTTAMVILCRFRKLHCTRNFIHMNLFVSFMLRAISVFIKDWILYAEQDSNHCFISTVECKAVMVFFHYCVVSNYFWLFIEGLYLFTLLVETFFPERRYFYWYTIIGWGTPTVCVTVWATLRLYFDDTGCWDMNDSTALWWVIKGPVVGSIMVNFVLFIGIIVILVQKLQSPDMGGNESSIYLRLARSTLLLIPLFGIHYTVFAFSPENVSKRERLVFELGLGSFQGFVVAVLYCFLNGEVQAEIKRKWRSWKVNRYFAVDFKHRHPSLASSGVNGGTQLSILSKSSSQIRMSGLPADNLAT
The experiment in a line: cell-based or functional assay.

human CGRP receptor, sequence (Q16602 23-461 limits assumed, chain 1 of 2): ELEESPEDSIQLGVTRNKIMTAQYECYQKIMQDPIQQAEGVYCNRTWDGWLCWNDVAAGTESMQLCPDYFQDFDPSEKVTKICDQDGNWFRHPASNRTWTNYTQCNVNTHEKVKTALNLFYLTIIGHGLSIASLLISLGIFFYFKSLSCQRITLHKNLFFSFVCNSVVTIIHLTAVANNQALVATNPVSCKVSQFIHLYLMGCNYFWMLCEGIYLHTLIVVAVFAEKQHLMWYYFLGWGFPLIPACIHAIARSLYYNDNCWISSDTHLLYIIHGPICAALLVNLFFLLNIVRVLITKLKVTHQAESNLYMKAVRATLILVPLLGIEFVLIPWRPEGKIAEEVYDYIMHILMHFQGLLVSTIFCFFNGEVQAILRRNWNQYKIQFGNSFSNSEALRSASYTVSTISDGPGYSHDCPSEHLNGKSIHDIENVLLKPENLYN
human CGRP receptor, sequence (O60894 27-148 limits assumed, chain 2 of 2): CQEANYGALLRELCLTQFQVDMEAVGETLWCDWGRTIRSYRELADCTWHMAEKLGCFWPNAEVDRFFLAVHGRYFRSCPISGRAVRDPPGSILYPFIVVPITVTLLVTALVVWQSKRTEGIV

B1: iPS:327680 (bispecific antibody, human IgG1, kappa, N297G)
light 1: EIVLTQSPATLSLSPGERATLSCRASQSVGRSLHWYQQKPGQAPRLLIKYASQSLSGIPARFSGSGSGTDFTLTISSLEPEDFAVYYCHQSSRLPFTFGPGTKVDIKRTVAAPSVFIFPPSDEQLKSGTASVVCLLNNFYPREAKVQWKVDNALQSGNSQESVTEQDSKDSTYSLESTLTLSKADYEKHKVYACEVTHQGLSSPVTKSFNRGEC
heavy 1: not shown
light 2: EIVLTQSPGTLSLSPGERATLSCRASQSVSSGYLTWYQQKPGQAPRLLIYGASSRATGIPDRFSGSGSGTDFTLTISRLEPEDFAVYYCQQYGNSLSRFGQGTKLEIKRTVAAPSVFIFPPSDEQLKSGTASVVCLLNNFYPREAKVQWKVDNALQSGNSQESVTEQDSKDSTYSLKSTLTLSKADYEKHKVYACEVTHQGLSSPVTKSFNRGEC
heavy 2: not shown
Turning to B1, the “% inhibition of human CGRPR” value in the test with human CGRP receptor was 88%. Further, the “% inhibition of human PAC1” value with human PAC1 receptor is 92%.

B2: iPS:327682 (bispecific antibody, human IgG1, kappa, N297G)
light 1: not shown
heavy 1: not shown
light 2: EIVLTQSPGTLSLSPGERATLSCRASQSVSSGYLTWYQQKPGQAPRLLIYGASSRATGIPDRFSGSGSGTDFTLTISRLEPEDFAVYYCQQYGNSLSRFGKGTKLEIKRTVAAPSVFIFPPSDEQLKSGTASVVCLLNNFYPREAKVQWKVDNALQSGNSQESVTEQDSKDSTYSLKSTLTLSKADYEKHKVYACEVTHQGLSSPVTKSFNRGEC
heavy 2: QVQLVESGGGVVQPGRSLRLSCAASGFTFSSYGMHWVRQAPGKELEWVAVIWYDGSNKYYAESVKGRFIISRDKSKNTLYLQMNSLRAEDTAVYYCARAGGIAAAGLYYYYGMDVWGQGTTVTVSSASTKGPSVFPLAPSSKSTSGGTAALGCLVKDYFPEPVTVSWNSGALTSGVHTFPAVLQSSGLYSLESVVTVPSSSLGTQTYICNVNHKPSNTKVDKKVEPKSCDKTHTCPPCPAPELLGGPSVFLFPPKPKDTLMISRTPEVTCVVVDVSHEDPEVKFNWYVDGVEVHNAKTKPCEEQYGSTYRCVSVLTVLHQDWLNGKEYKCKVSNKALPAPIEKTISKAKGQPREPQVYTLPPSRKEMTKNQVSLTCLVKGFYPSDIAVEWESNGQPENNYKTTPPVLKSDGSFFLYSKLTVDKSRWQQGNVFSCSVMHEALHNHYTQKSLSLSPGK
As to B2, the “% inhibition of human CGRPR” value with human CGRP receptor was 75%. In the test with human PAC1 receptor, the “% inhibition of human PAC1” value amounted to 12%.

B3: iPS:327677 (bispecific antibody, human IgG1, kappa, N297G)
light 1: not shown
heavy 1: not shown
light 2: EIVLTQSPGTLSLSPGERATLSCRASQSVSSGYLTWYQQKPGQAPRLLIYGASSRATGIPDRFSGSGSGTDFTLTISRLEPEDFAVYYCQQYGNSLSRFGQGTKLEIKRTVAAPSVFIFPPSDEQLKSGTASVVCLLNNFYPREAKVQWKVDNALQSGNSQESVTEQDSKDSTYSLKSTLTLSKADYEKHKVYACEVTHQGLSSPVTKSFNRGEC
heavy 2: not shown
For the molecule B3, in the test with human CGRP receptor, the “% inhibition of human CGRPR” value amounted to 81%. The “% inhibition of human PAC1” value in the test with human PAC1 receptor turned out to be 43%.

B4: iPS:327681 (bispecific antibody, human IgG1, kappa, N297G)
light 1: DIQMTQSPSSLSASVGDRITITCRASQSISRYLNWYQQKPGKAPKLLIYAASSLQSGIPSRFSGSGSGTDFTLTINSLQPEDFATYFCQQSYSPPFTFGEGTKVDIKRTVAAPSVFIFPPSDEQLKSGTASVVCLLNNFYPREAKVQWKVDNALQSGNSQESVTEQDSKDSTYSLESTLTLSKADYEKHKVYACEVTHQGLSSPVTKSFNRGEC
heavy 1: not shown
light 2: EIVLTQSPGTLSLSPGERATLSCRASQSVSSGYLTWYQQKPGQAPRLLIYGASSRATGIPDRFSGSGSGTDFTLTISRLEPEDFAVYYCQQYGNSLSRFGKGTKLEIKRTVAAPSVFIFPPSDEQLKSGTASVVCLLNNFYPREAKVQWKVDNALQSGNSQESVTEQDSKDSTYSLKSTLTLSKADYEKHKVYACEVTHQGLSSPVTKSFNRGEC
heavy 2: QVQLVESGGGVVQPGRSLRLSCAASGFTFSSYGMHWVRQAPGKELEWVAVIWYDGSNKYYAESVKGRFIISRDKSKNTLYLQMNSLRAEDTAVYYCARAGGIAAAGLYYYYGMDVWGQGTTVTVSSASTKGPSVFPLAPSSKSTSGGTAALGCLVKDYFPEPVTVSWNSGALTSGVHTFPAVLQSSGLYSLESVVTVPSSSLGTQTYICNVNHKPSNTKVDKKVEPKSCDKTHTCPPCPAPELLGGPSVFLFPPKPKDTLMISRTPEVTCVVVDVSHEDPEVKFNWYVDGVEVHNAKTKPCEEQYGSTYRCVSVLTVLHQDWLNGKEYKCKVSNKALPAPIEKTISKAKGQPREPQVYTLPPSRKEMTKNQVSLTCLVKGFYPSDIAVEWESNGQPENNYKTTPPVLKSDGSFFLYSKLTVDKSRWQQGNVFSCSVMHEALHNHYTQKSLSLSPGK
For the molecule B4, in the test with human CGRP receptor, the “% inhibition of human CGRPR” value was determined as 72%. The “% inhibition of human PAC1” value with human PAC1 receptor was found to be 73%.

B5: iPS:327289 (bispecific antibody, human IgG1, kappa, lambda, N297G)
light 1: not shown
heavy 1: not shown
light 2: QSVLTQPPSVSAAPGQKVTISCSGSSSNIGNNYVSWYQQLPGTAPKLLIYDNNKRPSGIPDRFSGSKSGTSTTLGITGLQTGDEADYYCGTWDSRLSAVVFGGGTKLTVLGQPKANPTVTLFPPSSEELQANKATLVCLISDFYPGAVTVAWKADGSPVKAGVETTKPSKQSNNKYAAKSYLSLTPEQWKSHRSYSCQVTHEGSTVEKTVAPTECS
heavy 2: QVQLVESGGGVVQPGRSLRLSCAASGFTFSSFGMHWVRQAPGKGLEWVAVISFDGSIKYSVDSVKGRFTISRDNSKNTLFLQMNSLRAEDTAVYYCARDRLNYYDSSGYYHYKYYGMAVWGQGTTVTVSSASTKGPSVFPLAPSSKSTSGGTAALGCLVKDYFPEPVTVSWNSGALTSGVHTFPAVLQSSGLYSLESVVTVPSSSLGTQTYICNVNHKPSNTKVDKKVEPKSCDKTHTCPPCPAPELLGGPSVFLFPPKPKDTLMISRTPEVTCVVVDVSHEDPEVKFNWYVDGVEVHNAKTKPCEEQYGSTYRCVSVLTVLHQDWLNGKEYKCKVSNKALPAPIEKTISKAKGQPREPQVYTLPPSRKKMTKNQVSLTCLVKGFYPSDIAVEWESNGQPENNYKTTPPVLKSDGSFFLYSKLTVDKSRWQQGNVFSCSVMHEALHNHYTQKSLSLSPGK
For B5, the “% inhibition of human CGRPR” value with human CGRP receptor came to 72%. Further, the “% inhibition of human PAC1” value with human PAC1 receptor is 75%.

B6: iPS:327291 (bispecific antibody, human IgG1, kappa, lambda, N297G)
light 1: EIVLTQSPATLSLSPGERATLSCRASQSVGRSLHWYQQKPGQAPRLLIKYASQSLSGIPARFSGSGSGTDFTLTISSLEPEDFAVYYCHQSSRLPFTFGPGTKVDIKRTVAAPSVFIFPPSDEQLKSGTASVVCLLNNFYPREAKVQWKVDNALQSGNSQESVTEQDSKDSTYSLESTLTLSKADYEKHKVYACEVTHQGLSSPVTKSFNRGEC
heavy 1: not shown
light 2: QSVLTQPPSVSAAPGQKVTISCSGSSSNIGNNYVSWYQQLPGTAPKLLIYDNNKRPSGIPDRFSGSKSGTSTTLGITGLQTGDEADYYCGTWDSRLSAVVFGGGTKLTVLGQPKANPTVTLFPPSSEELQANKATLVCLISDFYPGAVTVAWKADGSPVKAGVETTKPSKQSNNKYAAKSYLSLTPEQWKSHRSYSCQVTHEGSTVEKTVAPTECS
heavy 2: QVQLVESGGGVVQPGRSLRLSCAASGFTFSSFGMHWVRQAPGKGLEWVAVISFDGSIKYSVDSVKGRFTISRDNSKNTLFLQMNSLRAEDTAVYYCARDRLNYYDSSGYYHYKYYGMAVWGQGTTVTVSSASTKGPSVFPLAPSSKSTSGGTAALGCLVKDYFPEPVTVSWNSGALTSGVHTFPAVLQSSGLYSLESVVTVPSSSLGTQTYICNVNHKPSNTKVDKKVEPKSCDKTHTCPPCPAPELLGGPSVFLFPPKPKDTLMISRTPEVTCVVVDVSHEDPEVKFNWYVDGVEVHNAKTKPCEEQYGSTYRCVSVLTVLHQDWLNGKEYKCKVSNKALPAPIEKTISKAKGQPREPQVYTLPPSRKKMTKNQVSLTCLVKGFYPSDIAVEWESNGQPENNYKTTPPVLKSDGSFFLYSKLTVDKSRWQQGNVFSCSVMHEALHNHYTQKSLSLSPGK
On to B6, for which the “% inhibition of human CGRPR” value in the test with human CGRP receptor turned out to be 70%. In addition, the “% inhibition of human PAC1” value with human PAC1 receptor is 89%.

B7: iPS:327290 (bispecific antibody, human IgG1, kappa, lambda, N297G)
light 1: DIQLTQSPSFLSASVGDRVTITCRASQSIGRSLHWYQQKPGKAPKLLIKYASQSLSGVPSRFSGSGSGTEFTLTISSLQPEDFATYYCHQSSRLPFTFGPGTKVDIKRTVAAPSVFIFPPSDEQLKSGTASVVCLLNNFYPREAKVQWKVDNALQSGNSQESVTEQDSKDSTYSLESTLTLSKADYEKHKVYACEVTHQGLSSPVTKSFNRGEC
heavy 1: not shown
light 2: QSVLTQPPSVSAAPGQKVTISCSGSSSNIGNNYVSWYQQLPGTAPKLLIYDNNKRPSGIPDRFSGSKSGTSTTLGITGLQTGDEADYYCGTWDSRLSAVVFGGGTKLTVLGQPKANPTVTLFPPSSEELQANKATLVCLISDFYPGAVTVAWKADGSPVKAGVETTKPSKQSNNKYAAKSYLSLTPEQWKSHRSYSCQVTHEGSTVEKTVAPTECS
heavy 2: QVQLVESGGGVVQPGRSLRLSCAASGFTFSSFGMHWVRQAPGKGLEWVAVISFDGSIKYSVDSVKGRFTISRDNSKNTLFLQMNSLRAEDTAVYYCARDRLNYYDSSGYYHYKYYGMAVWGQGTTVTVSSASTKGPSVFPLAPSSKSTSGGTAALGCLVKDYFPEPVTVSWNSGALTSGVHTFPAVLQSSGLYSLESVVTVPSSSLGTQTYICNVNHKPSNTKVDKKVEPKSCDKTHTCPPCPAPELLGGPSVFLFPPKPKDTLMISRTPEVTCVVVDVSHEDPEVKFNWYVDGVEVHNAKTKPCEEQYGSTYRCVSVLTVLHQDWLNGKEYKCKVSNKALPAPIEKTISKAKGQPREPQVYTLPPSRKKMTKNQVSLTCLVKGFYPSDIAVEWESNGQPENNYKTTPPVLKSDGSFFLYSKLTVDKSRWQQGNVFSCSVMHEALHNHYTQKSLSLSPGK
For B7, the “% inhibition of human CGRPR” value in the test with human CGRP receptor is 70%. Moreover, in the test with human PAC1 receptor, the “% inhibition of human PAC1” value is 60%.

B8: iPS:326631 (bispecific antibody, human IgG2, kappa, lambda)
light 1: not shown
heavy 1: QVQLQQSGPGLVKPSQTLSLTCAISGDSVSSNSATWNWIRQSPSRGLEWLGRTYYRSKWSNHYAVSVKSRITINPDTSKSQFSLQLNSVTPEDTAVYYCARGTWKQLWFLDHWGQGTLVTVSSASTKGPSVFPLAPCSRSTSESTAALGCLVKDYFPEPVTVSWNSGALTSGVHTFPAVLQSSGLYSLKSVVTVPSSNFGTQTYTCNVDHKPSNTKVDKTVERKCCVECPPCPAPPVAGPSVFLFPPKPKDTLMISRTPEVTCVVVDVSHEDPEVQFNWYVDGVEVHNAKTKPREEQFNSTFRVVSVLTVVHQDWLNGKEYKCKVSNKGLPAPIEKTISKTKGQPREPQVYTLPPSREEMTKNQVSLTCLVDGFYPSDIAVEWESNGQPENNYDTTPPMLDSDGSFFLYSDLTVDKSRWQQGNVFSCSVMHEALHNHYTQKSLSLSPGK
light 2: not shown
heavy 2: not shown
Turning to B8, in the test with human CGRP receptor, the “% inhibition of human CGRPR” value was 89%. Besides, the “% inhibition of human PAC1” value in the test with human PAC1 receptor was 79%.
